Assay results taken from patent US20180318435A1 (UNITED STATES OF AMERICA AS REPRESENTED BY THE SECRETARY …, published 2018).

T1: BCMA-rFc fusion protein (extracellular domain of human BCMA, residues 1-54, fused to rabbit IgG Fc) (human; rabbit, UniProt Q02223 1-54)
T1 construct: range 1-54; also called recombinant BCMA-rFc; not shown: rabbit IgG heavy chain hinge region and Fc region (CH2 and CH3 domains), from vector pFUSE-rFc1 (InvivoGen); limits not
T1 sequence (looked up): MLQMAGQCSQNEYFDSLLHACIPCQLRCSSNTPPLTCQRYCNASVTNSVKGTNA

T2: full-length human BCMA (TNFRSF17, CD269) on the cell surface (human, UniProt Q02223 1-184)
T2 sequence (looked up): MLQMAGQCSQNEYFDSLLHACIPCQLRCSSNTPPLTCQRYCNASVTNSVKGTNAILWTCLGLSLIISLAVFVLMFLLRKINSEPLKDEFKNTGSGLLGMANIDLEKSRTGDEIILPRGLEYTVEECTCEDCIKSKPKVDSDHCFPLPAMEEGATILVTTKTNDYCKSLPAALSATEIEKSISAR

B1: LMB70: BM306-Fab-LR-GGS immunotoxin (protein, part only; not given: Fab constant domains and toxin part)
VH: EVQLQQSGPELVKPGASVKISCKTSGYTFTEYTINWVKQSHGKSLEWIGDIYPDNYNIRYNQKFKGKATLTVDKSSSTAYMELRSLSSEDSAIYYCANHDFFVFWGQGTLVTVSA
VL: DIQMTQATSSLSASLGDRVTINCRTSQDISNHLNWYQQKPDGTVKLLIYYTSRLQSGVPSRFSGSGSGTDYSLTISNLEQEDIGTYFCHQGNTLPPTFGGGTKLEIK
modifications: Fused to a Pseudomonas exotoxin domain III variant (PE-LR-GGS), which the letters do not carry.
B2: BM306 anti-BCMA monoclonal antibody (antibody, V domains shown)
VH: EVQLQQSGPELVKPGASVKISCKTSGYTFTEYTINWVKQSHGKSLEWIGDIYPDNYNIRYNQKFKGKATLTVDKSSSTAYMELRSLSSEDSAIYYCANHDFFVFWGQGTLVTVSA
VL: DIQMTQATSSLSASLGDRVTINCRTSQDISNHLNWYQQKPDGTVKLLIYYTSRLQSGVPSRFSGSGSGTDYSLTISNLEQEDIGTYFCHQGNTLPPTFGGGTKLEIKR
notes: Mouse hybridoma mAb, IgG1 with a kappa light chain
B3: BM24 anti-BCMA monoclonal antibody (antibody, V domains shown)
VH: EVQLQQSGPELVKPGASVKMSCKASGNTLTNYVIHWMKQMPGQGLDWIGYILPYNDLTKYNEKFTGKATLTSDKSSSSAYMELNSLTSEDSAVYYCTRWDWDGFFDPWGQGTTLTVSS
VL: DIVMTQSPLSLPVSLGDQASISCRSTQSLVHSNGNTHLHWYLQRPGQSPKLLIYSVSNRFSEVPDRFSASGSGTDFTLKISRVEAEDLGVYFCSQTSHIPYTFGGGTKLEIKR
notes: as for B2

How the values were obtained:
[1] = biological target: BCMA (target of the LMB70 affinity measurement; not named, form not stated) (UniProt Q02223); assay: affinity measurement after the first labeling; method and target not stated
[2] = biological target: full-length human BCMA (TNFRSF17, CD269) on the cell surface (human) (UniProt Q02223); assay: cell-based or functional assay
[3] = biological target: T1, BCMA-rFc fusion protein (extracellular …); assay: bio-layer interferometry (BLITZ), BCMA-rFc immobilized by amine coupling, mAb in solution
Protocol: The binding kinetics of MAbs to BCMA were measured by bio-layer interferometry using a BLITZ (ForteBio, Menlo Park, Calif.) instrument. According to the manufacturer's instructions, BCMA-rFc were immobilized on amine-reactive second-generation biosensors by amine coupling following the activation of the sensor surface with N-hydroxysuccinimide (NHS) and N-ethyl-N-(3-dimethylaminopropyl) carbodiimide hydrochloride (EDC). Serial dilutions of MAbs were run across sensor surface at five different concentration in PBS (pH 7.4). The sensorgram data set was globally fit using the built-in BLITZ software to determine association rate constant (Kₐ), dissociation rate constant (Kd), and affinity constant (KD).
Real-time biomolecular interaction analyses were performed with BLITZ software.

[4] = biological target: T2, full-length human BCMA (TNFRSF17, …); assay: cell-based or functional assay

Binder | Bmax [1] | IC50 (ng/ml), WST assay, H929 cells [2] | IC50 (ng/ml), WST assay, JJN-3 cells [2] | IC50 (ng/ml), WST assay, KMS-18 cells [2] | IC50 (ng/ml), WST assay, LP-1 cells [2] | IC50 (ng/ml), WST assay, RPMI-8226 cells [2] | IC50 (ng/ml), WST assay, U266B cells [2] | IC50, WST assay, H929 cells [2] | Kd [3] | koff [3] | kon [3] | IC50 (ng/ml), WST assay, H929 cells [4] | IC50 (ng/ml), WST assay, JJN-3 cells [4] | IC50 (ng/ml), WST assay, RPMI-8226 cells [4] | IC50 (ng/ml), WST assay, U266B cells [4]
B1 | 2220 | 1.1 ng/mL | 4 ng/mL | 65 ng/mL | 20 ng/mL | 5.1 ng/mL | 5 ng/mL | 1 to 1.5 ng/mL | – | – | – | – | – | – | –
B2 | – | – | – | – | – | – | – | – | < 1 pM | < 1e-07 s⁻¹ | 415000 M⁻¹ s⁻¹ | > 1000 ng/mL | > 1000 ng/mL | > 1000 ng/mL | > 1000 ng/mL
B3 | – | – | – | – | – | – | – | – | < 1 pM | < 1e-07 s⁻¹ | 297000 M⁻¹ s⁻¹ | – | – | – | –
